We go through 3 molecules from patent US8343491B2, “Anti-HIMF antibodies to treat lung diseases” (The Johns Hopkins University, priority 2006, dated 2013).

Assay [1] relates to bone marrow cells. Nature of the assay: Cell migration assay (Transwell). It is filed as cell-based, mouse. The method, then: FIGS. 6A-6D. CD45 positive cell migration was stimulated by HIMF and inhibited by BTK inhibitor. Bone marrow cells were cultured on cover glass in 12 well plates as described in FIG. 5A-5B. The cells were then treated with BSA (FIG. 6A) or HIMF (FIG. 6B and FIG. 6C) for 4 days and fixed with pre-cooled methanol before immunocytochemistry with the indicated first antibodies. DAPI staining was used to show the nuclei. […] 5×10^5 bone marrow cells in 2% fetal bovine serum DMEM culture medium were transferred to each transwell in the presence of 50 nM BSA, HIMF, or HIMF plus 25 μM LFM-A13, respectively. The cells were cultured for 6 hours, fixed in pre-cooled methanol and stained by Coomassie Blue solution. The cells growing on the surface of the membrane were removed after staining. Bone marrow cell migration was induced by HIMF and this induction was inhibited by BTK inhibitor LFM-A13 (FIG. 6D).
Cell migration assay. Bone marrow cells were detached with trypsin-EDTA, washed in serum-free medium, and then counted and adjusted to 10^6 cells/ml. […]
BTK stimulated the migration of bone marrow cells. […] Cell migration was further determined by partial trypsin digestion culture, leaving the cells to grow in colonies on a cover glass.

The target in assay [2] is T1, BTK (Mus musculus, UniProt P35991).
T1 construct: incubated with bone marrow cell lysate or hypoxia tissue homogenate for three hours; endogenous in cells; host or cells: lysate of cultured mouse bone marrow cells; in the second result, homogenate of mouse hind limb hypoxic tissue
T1 sequence (P35991 whole entry): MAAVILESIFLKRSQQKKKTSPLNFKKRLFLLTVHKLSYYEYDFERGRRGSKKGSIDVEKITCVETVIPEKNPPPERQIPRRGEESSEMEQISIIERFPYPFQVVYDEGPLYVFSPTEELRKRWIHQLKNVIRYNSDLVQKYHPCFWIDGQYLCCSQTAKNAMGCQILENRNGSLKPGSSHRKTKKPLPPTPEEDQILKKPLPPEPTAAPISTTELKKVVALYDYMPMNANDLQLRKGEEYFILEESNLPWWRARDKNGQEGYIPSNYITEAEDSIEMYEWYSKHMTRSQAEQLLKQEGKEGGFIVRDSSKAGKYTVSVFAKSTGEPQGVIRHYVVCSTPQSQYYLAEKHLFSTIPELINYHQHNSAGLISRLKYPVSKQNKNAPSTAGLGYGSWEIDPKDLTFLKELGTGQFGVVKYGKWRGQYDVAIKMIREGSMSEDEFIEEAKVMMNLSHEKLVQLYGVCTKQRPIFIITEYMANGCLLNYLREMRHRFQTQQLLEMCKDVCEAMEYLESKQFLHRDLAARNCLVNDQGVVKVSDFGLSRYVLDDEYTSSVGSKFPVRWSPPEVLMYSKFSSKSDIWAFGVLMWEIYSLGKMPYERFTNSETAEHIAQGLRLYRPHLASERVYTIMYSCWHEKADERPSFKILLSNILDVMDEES
The assay can be described thus: Protein phosphorylation assay (BTK Y223) in bone marrow cells. It is filed as cell-based. The following applies: 50 nM HIMF, minutes. Here is the method:
(§1) FIGS. 4A-4C. BTK self-phosphorylation in response to the treatment of HIMF. Three plates of primary cultured bone marrow cells that were passed from the same plate of cells were cultured to confluence and then treated with HIMF (5 minutes and 30 minutes), or without HIMF. The cell lysates were used for the Western blot. The membrane was first probed by anti-BTK phosphorylation (Y223) antibody and then was probed by anti-BTK antibody after stripping (FIG. 4A). Five plates of primary cultured bone marrow cells that were passed from same plates of cells were cultured to confluence and then treated with HIMF (2.5, 5, 10 and 20 minutes respectively) or without HIMF. The cell lysates were used for the Western blot. The membrane was first detected by anti-BTK phosphorylation (Y223) antibody and then by anti-tubulin antibody (FIG. 4B). The same samples were used for the detection of fyn phosphorylation (FIG. 4C). Phosphorylation of Y416 upregulates enzyme activity. Phosphorylation of Y528 negatively regulates enzyme activity.
(§2) Protein phosphorylation assays. […] The supernatants of the samples were quantified for protein concentration and subjected to electrophoresis on a 4-15% SDS-polyacrylamide gel (Bio-Rad). […]

Another assay has as its system Fyn. The assay can be described thus: Fyn phosphorylation in bone marrow cells. The conditions noted are these: bone marrow cells stimulated with HIMF. It is filed as cell-based, mouse. Here is the method: as §1, §2
Assay [3] addresses T1, BTK. Nature of the assay: BTK redistribution in bone marrow cells (immunofluorescence). The format is cell-based. The following applies: 50 nM HIMF, 5 minutes. Here is the method:
FIGS. 3A-3B. BTK redistribution in response to the stimulation of HIMF. Primary cultured bone marrow. Bone marrow cells were cultured on cover glass and then treated with 50 nM BSA (FIG. 3A) or HIMF (FIG. 3B) for five minutes. Cells were fixed by pre-cooled methanol before indirect immunofluorescence. BTK or FYN, a binding partner for BTK, was redistributed in bone marrow cells after the treatment of HIMF.
Immunofluorescence microscopy. Bone marrow or COS-7 cells were cultured on coverslips in DMEM containing 10% FBS and fixed in pre-cooled methanol for 5 minutes. The cells were then permeabilized with 0.2% Triton X-100 in PBS and blocked with 0.5% bovine serum albumin in PBS followed by incubation with the indicated antibodies. FITC-donkey anti-rabbit IgG and Rhodamine-donkey anti-mouse IgG were used as second antibodies. For transfection experiments, cells were cultured overnight and transfected with indicated constructs in serum-free medium for four hours and changed into DMEM containing 10% FBS overnight. Cells were fixed and stained as above. A 510 confocal microscope was used for the imaging.
Translocation of BTK in bone marrow cells in response to the stimulation of HIMF. […] The activation of BTK family tyrosine kinases will result in their stimulated translocation to membrane fractions (24). […]

Assay [4] relates to bone marrow cells. Nature of the assay: Cell migration out of colony (partial trypsin digestion culture). It is filed as cell-based, mouse. The conditions noted are these: 50 nM HIMF, 2% FBS DMEM, four days. Here is the method:
FIGS. 5A-5B. HIMF stimulated bone marrow cell migration. Bone marrow cells were partially digested by trypsin-EDTA solution, washed by PBS and then sucked up and transferred to twelve well plates using a 1000 μl tip. The cells were cultured in 2% fetal bovine serum DMEM with 50 nM BSA or HIMF for four days. More cells migrated out of the original cell colony in the presence of HIMF than those in BSA (FIG. 5A). 5×10^5 bone marrow cells were cultured in transwell plates in the presence of 50 nM BSA or HIMF. The cells were cultured overnight, fixed in pre-cooled methanol and stained by Coomassie Blue solution. The cells growing on the surface of the membrane were removed after staining (FIG. 5B). A Nikon Eclipse microscope was used for the imaging.
BTK stimulated the migration of bone marrow cells. To test whether HIMF stimulates the migration of bone marrow cells, bone marrow cells were cultured in transwell plates in the presence of […] BSA or HIMF. The cells were cultured overnight, fixed in methanol and stained by Coomassie Blue solution. Cells growing on the surface of the membrane were removed by cotton tipped applicators before imaging. […] Cell migration was further determined by partial trypsin digestion culture, leaving the cells to grow in colonies on a cover glass.

For assay [5], the system named is hindlimb ischemia tissues. Nature of the assay: Mouse hindlimb ischemic model, agarose gel implant. The format is in vivo. The conditions noted are these: 100 nM HIMF in 2% agarose gel implanted, two weeks, versus BSA gel. Here is the method:
FIGS. 7A-7B. […] Mouse hind limb ischemia model was established and agarose gel containing 100 nM BSA or 100 nM HIMF (gels were cut into 2×5×8 mm pieces) were buried subcutaneously at the sites of ischemia. Two weeks later, the ischemic tissues were collected for immunocytochemistry. The tissue treated by HIMF (FIG. 7B) was shown increasing in CD34 positive cells comparing to that of BSA treated tissue (FIG. 7A).
Mouse hindlimb ischemic model. Animals were subjected to left femoral artery ligation and excision to create unilateral hind limb ischemia. For each animal, 25 mg/kg ketamine plus 10 mg/kg xylazine was injected subcutaneously. Skin incisions were performed at the middle portion of the left hind limb overlying the femoral artery. The femoral artery was gently isolated. First the proximal portion and then the distal portion of the femoral artery were ligated, and then other arterial branches as well as veins were dissected free and excised. The overlying skin was closed using two surgical staples. Tissue in the hypoxia area was removed and homogenized in TBST buffer two weeks after the operation.
HIMF promoted angiogenesis in hypoxic tissues. Hypoxia can induce pulmonary artery adventitial remodeling and neovascularization. […]

Assay [6] concerns the target T1, BTK. Nature of the assay: GST pull-down assay. It is filed as binding. Here is the method:
FIGS. 1A-1B. BTK is a HIMF-binding molecule. GST-HIMF fusion protein and GST were incubated with glutathione-sepharose beads and then incubated with bone marrow cell lysate respectively in TBST buffer at 4° C. for three hours. The beads were washed five times by TBST and loading buffer was added to the samples. After electrophoresis, the gel was stained by Coomassie Blue. […] GST-HIMF and GST were first bonded to glutathione sepharose and then incubated with the lysate of bone marrow cells (left) or homogenate of ischemic tissue (right) at 4° C. for three hours and then washed by TBST solution three times. After SDS-PAGE and transfer to membrane, the samples were detected by anti-BTK and anti-GST antibodies (FIG. 1B).
GST pull-down assay. Bone marrow cells were cultured in ten 150×25 mm plates until confluence and collected for lysate using TBST buffer. Lysate from ten plates of bone marrow cells was used for HIMF-binding partner screening assay. Hypoxia tissue homogenate was prepared as described above. BL21 bacterial lysates for GST and GST-HIMF were first incubated with glutathione agarose in 0.1% TBST buffer for three hours and then washed three times by 0.1% TBST buffer. The GST and GST-HIMF binding glutathione agaroses were incubated with bone marrow cell lysate or hypoxia tissue homogenate for three hours and then washed 3-5 times before SDS-PAGE.

“Also recorded” adds a separate entry of the source.

Turning to `C/C(O)=C(\C#N)C(=O)Nc1cc(Br)ccc1Br` [LFM-A13, reference compound], the “Inhibition of HIMF-induced bone marrow cell migration” value with bone marrow cells [1] (25 μM LFM-A13 plus 50 nM HIMF, transwell, 6 hours) is given as “inhibited; also recorded: completely blocked”.

B1: HIMF: Hypoxia-induced mitogenic factor protein (Flag-tagged mouse HIMF) applied to cells and tissue (protein)
chain: DETIEIIVENKVKELLANPANYPSTVTKTLSCTSVKTMNRWASCPAGMTATGCACGFACGSWEIQSGDTCNCLCLLVDWTTARCCQLS
With B1, the “BTK self-phosphorylation (Y223)” value in the assay with BTK [2] was “stimulate the self-phosphorylation of BTK”. The “Fyn activity (phosphorylation Y416/Y528)” value with Fyn is “not changed in activity”. The “Bone marrow cell migration (transwell) versus BSA” value in the assay on bone marrow cells [1] (50 nM HIMF, overnight) was “markedly promoted; also recorded: More cells migrated out of the chamber”. Further, the “BTK translocation in bone marrow cells” value with BTK [3] is given as “rapidly induced recruitment of BTK to the leading edge of cells”. In addition, the “Bone marrow cell migration out of the colony versus BSA” value with bone marrow cells [4] was “more bone marrow cells were stimulated to migrate out of the colony”. Besides, in assay [5], the “Angiogenesis in hindlimb ischemia tissues” value is on record as “stimulated angiogenesis” and the “CD34 positive cells in ischemic tissue” value is “increased”.

B2: GST-HIMF: GST fusion protein of mouse HIMF expressed in BL21 cells (protein)
chain: B1 chain
modifications: left off: a dimerising Fc or GST
notes: GST fusion protein of mouse HIMF expressed in BL21 cells
Consider B2, for which the “Pull-down of BTK from bone marrow cell lysate” value with BTK [6] (bone marrow cell lysate, GST control did not) was “pulled down BTK”. Moreover, in the assay with BTK [6] (homogenate of mouse hind limb hypoxic tissue, not to GST), the “Binding of BTK from hind limb hypoxic tissue homogenate” value is “shown to bind”.
